US20240293553A1 (BETH ISRAEL DEACONESS MEDICAL CENTER, published 2024)
Square brackets hold non-standard residues; d marks the D form. Side chains are listed from the residue outwards. Ends that are not written are not given here. mPEG 40 kDa (SVA) = 40 kDa methoxy poly(ethylene glycol) succinimidyl valerate (mPEG-SVA); triazole linker = not defined here; Fs = not defined here

T1: murine P-selectin-Fc chimera (murine, UniProt Q01102 42-709)
T1 construct: Bought from R&D Systems; also called mouse P-selectin chimera; species-specific P-selectin-Fc chimera; not shown: Fc part
T1 sequence (looked up): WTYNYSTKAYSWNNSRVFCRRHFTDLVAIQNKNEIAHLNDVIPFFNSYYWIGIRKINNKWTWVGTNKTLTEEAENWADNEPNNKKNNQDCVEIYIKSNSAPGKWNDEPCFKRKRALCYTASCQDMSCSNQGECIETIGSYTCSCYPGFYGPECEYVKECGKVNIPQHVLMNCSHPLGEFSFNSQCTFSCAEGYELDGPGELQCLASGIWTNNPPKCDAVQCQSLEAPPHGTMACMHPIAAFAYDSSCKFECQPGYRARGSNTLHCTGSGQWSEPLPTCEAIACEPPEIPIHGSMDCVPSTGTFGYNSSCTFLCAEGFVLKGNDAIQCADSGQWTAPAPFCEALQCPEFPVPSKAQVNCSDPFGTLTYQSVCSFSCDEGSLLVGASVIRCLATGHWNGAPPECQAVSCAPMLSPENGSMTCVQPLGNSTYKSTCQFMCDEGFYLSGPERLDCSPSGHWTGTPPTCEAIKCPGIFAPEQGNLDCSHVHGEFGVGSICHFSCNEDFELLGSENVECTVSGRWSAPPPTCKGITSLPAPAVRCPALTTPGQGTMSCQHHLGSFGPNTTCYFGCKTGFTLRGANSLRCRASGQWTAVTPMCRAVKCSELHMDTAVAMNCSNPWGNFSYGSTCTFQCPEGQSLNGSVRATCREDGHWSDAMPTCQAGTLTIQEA


Legend:
[1] = molecular target: T2, human P-selectin-Ig chimera (human, UniProt P16109 42-771); assay: flow cytometry competition: inhibition of human P-selectin-Fc chimera (3 µg/mL) binding to human neutrophils
T2 construct: No source is stated for the chimera used on the microarray and in SPR; also called P-Sel-Ig; P-sel-Ig
T2 sequence (P16109 42-771, change not shown): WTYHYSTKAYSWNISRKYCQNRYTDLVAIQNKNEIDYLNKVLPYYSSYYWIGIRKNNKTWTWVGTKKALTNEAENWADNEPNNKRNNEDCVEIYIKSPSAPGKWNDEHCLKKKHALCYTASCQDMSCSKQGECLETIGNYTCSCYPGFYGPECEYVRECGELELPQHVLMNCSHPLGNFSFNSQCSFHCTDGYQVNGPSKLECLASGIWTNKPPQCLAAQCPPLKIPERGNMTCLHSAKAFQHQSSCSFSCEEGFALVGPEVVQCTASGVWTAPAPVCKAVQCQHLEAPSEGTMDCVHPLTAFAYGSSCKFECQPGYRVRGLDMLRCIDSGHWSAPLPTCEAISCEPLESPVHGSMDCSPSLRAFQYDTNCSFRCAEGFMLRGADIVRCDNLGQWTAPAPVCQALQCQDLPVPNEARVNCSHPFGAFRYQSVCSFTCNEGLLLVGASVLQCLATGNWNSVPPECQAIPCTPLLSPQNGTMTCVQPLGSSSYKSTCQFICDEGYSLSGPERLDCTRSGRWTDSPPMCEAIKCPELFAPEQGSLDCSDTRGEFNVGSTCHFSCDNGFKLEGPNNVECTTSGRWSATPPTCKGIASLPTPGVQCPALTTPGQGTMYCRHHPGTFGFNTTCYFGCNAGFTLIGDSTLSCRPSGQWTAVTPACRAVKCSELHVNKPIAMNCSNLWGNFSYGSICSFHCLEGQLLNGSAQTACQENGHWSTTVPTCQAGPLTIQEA

[2] = molecular target: T1, murine P-selectin-Fc chimera; assay: flow cytometry competition: inhibition of murine P-selectin-Fc chimera (3 µg/mL) binding to murine monocytes
[3] = molecular target: T1, murine P-selectin-Fc chimera; assay: flow cytometry competition: inhibition of murine P-selectin-Fc chimera (3 µg/mL) binding to murine neutrophils
[4] = molecular target: T2, human P-selectin-Ig chimera; assay: flow cytometry competition: inhibition of human P-selectin-Fc chimera (3 µg/mL) binding to human monocytes
[5] = molecular target: T2, human P-selectin-Ig chimera; assay: SPR (Biacore): biotinylated G4 on streptavidin chip, P-sel-Ig flowed at 0.4-100 nM, 1:1 model
[6] = molecular target: T2, human P-selectin-Ig chimera; assay: SPR (Biacore): biotinylated ligand on streptavidin chip, P-selectin-Ig flowed at 0.4-100 nM

IC50 [1] [µM]	IC50 [2] [µM]	IC50 [3] [µM]	IC50 [4] [µM]	Kd [5] [µM]	Kd [6] [µM]	Binder
9	6	9	12	–	–	{mPEG 40 kDa (SVA)}-KE[Fs]E[Fs]LD[Fs]DFLPET([triazole linker-sLe^x])EPL (reading uncertain, also called PEG-G4; pegylated click compound) [PEG40-G4 (P-G4)]
13	10	–	16	0.069	0.05	KEFEFLDFDFLPETEPL (not fully specified (residues 3, 5, 8, 14); also: biotinylated for SPR, place not given here, Synthetic glycosulfonopeptide analogue of the N-terminus of PSGL-1; also called compound 1) [G4]
